The target of assay [1] is pure recombinant CD44 protein (Abcam). Put plainly: plate assay, pH 5.2, peptide + 10 ug/well holotransferrin, no hyaluronan (CONTROL), 100 ng/well CD44, anti-CD44 mAb/TMB detection.
The target is the same in assay [2]. Put plainly: plate assay, pH 7.4, peptide + 10 ug/well holotransferrin, no hyaluronan (CONTROL), 100 ng/well CD44, anti-CD44 mAb/TMB detection.
Assay [3] has the same target. Put plainly: plate assay, pH 5.2, peptide + 10 ug/well holotransferrin + 10 ug/well HMW-hyaluronan (CD44 capture through HA), anti-CD44 mAb/TMB detection.
For assay [4] the target is unchanged. As to the kind of experiment: plate assay, pH 5.2, peptide + 10 ug/well holotransferrin + 10 ug/well LMW-hyaluronan (CD44 capture through HA), anti-CD44 mAb/TMB detection.
Assay [5] shares this target. Put plainly: plate assay, pH 7.4, peptide + 10 ug/well holotransferrin + 10 ug/well HMW-hyaluronan (CD44 capture through HA), anti-CD44 mAb/TMB detection.
For assay [6] the target is unchanged. As to the kind of experiment: plate assay, pH 7.4, peptide + 10 ug/well holotransferrin + 10 ug/well LMW-hyaluronan (CD44 capture through HA), anti-CD44 mAb/TMB detection.
Assay [7] has the same target. As to the kind of experiment: plate assay, pH 5.2, peptide + 10 ug/well holotransferrin + 1.5 ug/well HMW-hyaluronan (CD44 capture through HA), anti-CD44 mAb/TMB detection.
Assay [8] shares this target. As to the kind of experiment: plate assay, pH 7.4, peptide + 10 ug/well holotransferrin + 1.5 ug/well HMW-hyaluronan (CD44 capture through HA), anti-CD44 mAb/TMB detection.
The target is the same in assay [9]. Put plainly: plate assay, pH 5.2, peptide pre-bound with 10 ug/well HMW-hyaluronan (CD44 capture through HA), anti-CD44 mAb/TMB detection.
Assay [10] has the same target. As to the kind of experiment: plate assay, pH 5.2, peptide pre-bound with 10 ug/well LMW-hyaluronan (CD44 capture through HA), anti-CD44 mAb/TMB detection.
Assay [11] has the same target. Put plainly: plate assay, pH 7.4, peptide pre-bound with 10 ug/well HMW-hyaluronan (CD44 capture through HA), anti-CD44 mAb/TMB detection.
Assay [12] shares this target. Put plainly: plate assay, pH 7.4, peptide pre-bound with 10 ug/well LMW-hyaluronan (CD44 capture through HA), anti-CD44 mAb/TMB detection.
The target is the same in assay [13]. Put plainly: plate assay, biotin-peptide on streptavidin plate, pH 5.2, no hyaluronan (CONTROL), 100 ng/well CD44, anti-CD44 mAb/TMB detection.
For assay [14] the target is unchanged. As to the kind of experiment: plate assay, biotin-peptide on streptavidin plate, pH 7.4, no hyaluronan (CONTROL), 100 ng/well CD44, anti-CD44 mAb/TMB detection.
Assay [15] has the same target. Put plainly: plate assay, pH 5.2, peptide pre-bound with 1.5 ug/well HMW-hyaluronan (CD44 capture through HA), anti-CD44 mAb/TMB detection; reference set to 100.
The target is the same in assay [16]. As to the kind of experiment: plate assay, pH 7.4, peptide pre-bound with 1.5 ug/well HMW-hyaluronan (CD44 capture through HA), anti-CD44 mAb/TMB detection; reference set to 100.

Ends that are not written are not given here. * marks the point of attachment. Biotin = O=C1N[C@H]2[C@H](CS[C@H]2CCCCC(=O)*)N1

pure recombinant CD44 protein (Abcam), sequence (P16070 whole entry): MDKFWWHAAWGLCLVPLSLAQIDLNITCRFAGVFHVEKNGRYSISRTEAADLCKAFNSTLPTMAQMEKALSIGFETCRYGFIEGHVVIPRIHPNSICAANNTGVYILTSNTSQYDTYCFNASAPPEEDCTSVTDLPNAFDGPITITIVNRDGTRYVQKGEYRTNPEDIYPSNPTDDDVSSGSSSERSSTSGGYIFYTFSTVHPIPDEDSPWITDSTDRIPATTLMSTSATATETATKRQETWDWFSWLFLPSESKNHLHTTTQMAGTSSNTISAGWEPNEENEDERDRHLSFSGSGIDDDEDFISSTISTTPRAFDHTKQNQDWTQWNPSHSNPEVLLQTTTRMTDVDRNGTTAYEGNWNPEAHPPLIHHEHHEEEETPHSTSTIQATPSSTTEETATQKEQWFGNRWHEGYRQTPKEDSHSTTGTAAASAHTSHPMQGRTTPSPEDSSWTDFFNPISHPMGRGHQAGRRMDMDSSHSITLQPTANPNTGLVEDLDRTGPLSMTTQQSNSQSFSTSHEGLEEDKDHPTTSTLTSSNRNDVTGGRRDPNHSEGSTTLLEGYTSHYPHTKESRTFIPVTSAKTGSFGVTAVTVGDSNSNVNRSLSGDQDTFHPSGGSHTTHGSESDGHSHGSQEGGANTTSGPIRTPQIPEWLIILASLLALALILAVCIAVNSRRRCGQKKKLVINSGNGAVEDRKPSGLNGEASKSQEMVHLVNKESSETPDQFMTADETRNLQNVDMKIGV

B1: immX3AVD + holoTf (immX3AVD peptide incubated with 10 ug/well holotransferrin) (peptide, part only; not given: holotransferrin, not shown: large carriers)
peptide: Biotin-KKGFYKKKQCRPSKGRKRGFCWAVD
modifications: cysteine pairing not given here; also: non-covalent mixture/complex with holotransferrin, stoichiometry not given here
On to B1, for which the CD44 immunoreactivity (AU) (AU (immX3AVD + 1.5 ug HMW-HA = 100)) in [1] was 12; in assay [2], 3.1; in [3], 94.8; in [4] it was 27.4; in [5], 107; in assay [6], 38.7. Besides, the CD44 immunoreactivity (AU) (AU (immX3AVD + 1.5 ug HMW-HA = 100)) in [7] was found to be 103; in assay [8], 98.3.

B2: immX3AVD peptide (N-terminally biotinylated, bound to streptavidin-coated plate) (peptide)
peptide: Biotin-KKGFYKKKQCRPSKGRKRGFCWAVD
modifications: cysteine pairing not given here
Turning to B2, the CD44 immunoreactivity (AU) (AU (immX3AVD + 1.5 ug HMW-HA = 100)) in [9] amounted to 105; in [10], 103; in [11], 101; in assay [12] it was 103; in [13], 13.2; in assay [14], 19.6. The CD44 immunoreactivity (AU) (AU (immX3AVD + 1.5 ug HMW-HA = 100)) in assay [15] and in [16] was 100 throughout.

The record behind these values is patent US20240034761A1, “REGENERATION OF MAMMALIAN TISSUES USING SYNTHETIC IMMODULINS” (priority 2022, published 2024).
